The record followed here is article PMC7055300 (2020).

The target of the experiment is T1, human Retinoblastoma-1 (RB) pocket domain (human, UniProt P06400 373-771).
T1 chain: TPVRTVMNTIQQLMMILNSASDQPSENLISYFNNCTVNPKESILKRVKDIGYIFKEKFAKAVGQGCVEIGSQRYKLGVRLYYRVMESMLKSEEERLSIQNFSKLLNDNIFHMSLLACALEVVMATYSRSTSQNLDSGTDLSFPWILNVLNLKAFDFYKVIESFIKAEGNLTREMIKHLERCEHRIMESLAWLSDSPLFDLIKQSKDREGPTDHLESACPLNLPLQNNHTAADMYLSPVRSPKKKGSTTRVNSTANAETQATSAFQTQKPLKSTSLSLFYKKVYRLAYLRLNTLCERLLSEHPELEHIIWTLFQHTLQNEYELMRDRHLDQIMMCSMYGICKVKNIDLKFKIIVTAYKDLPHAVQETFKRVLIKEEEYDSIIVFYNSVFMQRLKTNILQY
Briefly: SPR. Background: Surface plasmon resonance follows binding to a sensor surface in real time, without labels.

On to YIEEVFTPLVLKCKELK [LXCXE peptide derived from TpGcpE (TpMuguga_02g00667)], for which binding was characterised by a dissociation constant (Kd) of 22.4 µM.

B1: full-length E2F1, purified, recombinant (natural protein)
chain: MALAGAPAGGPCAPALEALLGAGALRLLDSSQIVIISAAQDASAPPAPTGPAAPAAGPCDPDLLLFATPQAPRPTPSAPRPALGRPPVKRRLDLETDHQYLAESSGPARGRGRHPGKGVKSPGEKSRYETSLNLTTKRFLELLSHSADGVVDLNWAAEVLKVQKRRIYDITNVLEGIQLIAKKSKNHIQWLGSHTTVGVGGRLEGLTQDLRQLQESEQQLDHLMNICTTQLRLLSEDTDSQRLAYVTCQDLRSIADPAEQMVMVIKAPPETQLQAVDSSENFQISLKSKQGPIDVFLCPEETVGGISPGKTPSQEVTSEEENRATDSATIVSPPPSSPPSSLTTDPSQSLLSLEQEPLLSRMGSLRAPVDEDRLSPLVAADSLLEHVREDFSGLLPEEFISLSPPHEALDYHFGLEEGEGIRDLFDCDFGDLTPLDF
In turn, B1 returned a Kd of 0.0331 µM.

What is called Kd is a measure of binding affinity in units of concentration.
